Broadly, the Kd is a measure of binding affinity in units of concentration.

Test [1] deals with T1, recombinant human IL-17A (human, UniProt Q16552 24-155).
T1 sequence: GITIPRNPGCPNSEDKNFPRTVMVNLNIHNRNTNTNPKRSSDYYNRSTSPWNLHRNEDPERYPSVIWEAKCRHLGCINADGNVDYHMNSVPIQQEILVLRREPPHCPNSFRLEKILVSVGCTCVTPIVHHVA
As to the kind of experiment: cell-based or functional assay.

The target in test [2] is T2, recombinant human IL-17A/F (heterodimer) (human, UniProt Q16552 24-155; Q96PD4 31-163).
T2 sequence 1: T1 sequence
T2 sequence 2: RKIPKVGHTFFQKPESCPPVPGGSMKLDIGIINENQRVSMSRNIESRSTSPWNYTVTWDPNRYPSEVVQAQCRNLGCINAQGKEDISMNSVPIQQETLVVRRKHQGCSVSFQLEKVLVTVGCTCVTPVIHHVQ
As to the kind of experiment: cell-based or functional assay.

Test [3] addresses T1, recombinant human IL-17A. As to the kind of experiment: competitive ELISA in solution (method of Friguet et al.).
Description: (§1) For this determination a competitive ELISA with the various isoforms was performed.
(§2) Appropriate concentrations of the respective antigens and monoclonal antibodies were mixed in assay buffer and incubated overnight with continuous shaking at room temperature. The same monoclonal antibodies in the same concentration, but without antigen were used as positive reference (100% value). Pre-incubated antibodies were added to the plates. The plates were incubated with continuous shaking and washed 4× with 250 μL/well TBS-TRP.
Test [4] has as its target T2, recombinant human IL-17A/F (heterodimer). The test is described as above.
Description: as §1, §2

Numbering of substitutions follows the chain as printed. “And” between values parts separate entries of the source, which are not always exact repeats. Equal entries are not always repeated.

B1: OREG-203 (antibody, V domains shown)
VH: QAQLQQSGAELVKPGASVKMSCKAFGYTFTTFPIEWMKQNHGKSLEWIGNFHPYNDYTKYNEKFKGKAKLTVEKSSRTVYLELSRLTSDDSAVYYCARGAYYGDYVSHTMDFWGQGTSVTVSS
VL: NIVLTQSPASLAVSLGQRATISCRASESVDSYGNSFMHWYQQKPGQPPKLLIYLASNLESGVPARFSGSGSRTDFTLTIDPVEADDAAIYYCQQNNEDPLTFGAGTKLELK
notes: also called mAb OREG-203; Ab OREG-203
In the case of B1, the “IC50, neutralization of IL-6 production in normal human dermal fibroblasts” value (“IC50, neutralization of IL-6 production” below) in test [1] is 115 ng/ml and 0.76 nM; in test [2], 30.2 ng/ml and 0.2 nM. The Ka came to 1.4e+09 M⁻¹ in test [3] and 1e+09 M⁻¹ in test [4]. For the same molecule, the Kd was 0.714 nM in test [3] and 1 nM in test [4].

B2: Fab fragment of OREG-203 (Fab, V domains shown)
VH: B1 VH
VL: B1 VL
As for B2, the “IC50, neutralization of IL-6 production” value in test [1] was 75.9 ng/ml and 1.52 nM; in test [2] it was 15.3 ng/ml and 0.306 nM.

B3: OREG-207 (antibody, V domains shown)
VH: B1 VH with R77S
VL: B1 VL
notes: also called mAb OREG-207; Ab OREG-207
In the case of B3, the “IC50, neutralization of IL-6 production” value in test [1] is 96.5 ng/ml and 0.64 nM; in test [2], 40.1 ng/ml and 0.26 nM. Moreover, the Ka in test [3] turned out to be 1.54e+09 M⁻¹; in test [4], 2.67e+09 M⁻¹. The results for the Kd in test [3] and in test [4] were 0.649 nM and 0.375 nM, respectively.

B4: OREG-210 (antibody, V domains shown)
VH: QVQLKESGPDLVAPSQSLSITCTVSGFSLTSYGIHWVRQPPGKGLEWLVVIWSDGTTTYNSALKSRLSISKDNSKSQVFLKMNSLQTDDTAMYYCASSYDYLYHYTMDYWGQGTSVTVSS
VL: DVVMTQTPLSLPVSLGDQASISCRSSQSLVHSNGNTYFHWYLQKPGQSPKLLIYKVSNRFSGVPDRFSGSGSGTDFTLKISRVEAEDLGVYFCSQSTHVPLTFGAGTNLELK
notes: also called mAb OREG-210; Ab OREG-210
On to B4, for which the “IC50, neutralization of IL-6 production” value in test [1] was 110 ng/ml and 0.74 nM; in test [2] it was 167 ng/ml and 1.1 nM. In addition, the results for the Ka in test [3] and in test [4] were 6.4e+08 M⁻¹ and 3.4e+08 M⁻¹, respectively. The Kd worked out at 1.56 nM in test [3] and 2.94 nM in test [4].

B5: Fab fragment of OREG-210 (Fab, V domains shown)
VH: B4 VH
VL: B4 VL
B5: the “IC50, neutralization of IL-6 production” value was 1120 ng/ml and 22.4 nM in test [1]; 605 ng/ml and 12.1 nM in test [2].

B6: F(ab')2 fragment of OREG-210 (other)
VH: B4 VH
VL: B4 VL
Consider B6, for which the “IC50, neutralization of IL-6 production” value in test [1] is 1050 ng/ml and 10.5 nM; in test [2], 1160 ng/ml and 11.6 nM.

The values are drawn from patent US20150104457A1 (OREGA BIOTECH, published 2015).
